The target in assay [1] is human CCR8 (human) (UniProt P51685). In words: flow cytometry on mammalian cells expressing human CCR8.
Assay [2] has the same target. In words: cell-based or functional assay.

Chain of human CCR8 (human) (P51685 whole entry): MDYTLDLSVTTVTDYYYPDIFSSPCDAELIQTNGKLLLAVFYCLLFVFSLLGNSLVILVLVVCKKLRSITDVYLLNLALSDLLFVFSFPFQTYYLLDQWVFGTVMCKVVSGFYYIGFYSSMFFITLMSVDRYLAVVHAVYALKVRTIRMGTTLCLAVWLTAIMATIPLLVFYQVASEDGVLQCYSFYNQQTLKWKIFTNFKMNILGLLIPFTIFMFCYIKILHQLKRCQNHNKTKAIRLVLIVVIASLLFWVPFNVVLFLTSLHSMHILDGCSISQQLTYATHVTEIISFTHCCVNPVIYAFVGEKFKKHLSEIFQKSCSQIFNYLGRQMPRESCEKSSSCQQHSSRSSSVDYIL

As for “ADI-26140: Human IgG1 isotype control (antibody)”, the MFI Fold over Background (fold over background) in the assay with human CCR8 (human) [1] stood at 2.

On to “CTL-33364 = Biolegend human CCR8 control IgG clone L263G8 (antibody)”, for which, in the assay with human CCR8 (human) [1], the MFI Fold over Background (fold over background) was 268. In the assay with human CCR8 (human) [2], this substance showed an IC50 antagonism of EC80 Human CCL1 Gα15/16 Biosensor of 1.62 nM and an IC50 antagonism of EC80 Human CCL1 Gαz Biosensor of 0.798 nM.

In the assay with human CCR8 (human) [2], “MC148R = virokine from Molluscum contagiosum virus subtype 2 (MOCV) (ligand)” registered an IC50 antagonism of EC80 Human CCL1 Gα15/16 Biosensor of 33.5 nM and an IC50 antagonism of EC80 Human CCL1 Gαz Biosensor of 13.8 nM.
